Sequences and labels used below:
B1: V5-Cx40 (wild type) [rat] / GFP-LC3B (expressed in HEK293A cells) [not stated (human cDNA cloned; a plasmid from Dr. Yoshimori also named)] (parent complex)
chain 1: MGDWSFLGEFLEEVHKHSTVIGKVWLTVLFIFRMLVLGTAAESSWGDEQADFRCDTIQPGCQNVCYDQAFPISHIRYWVLQIIFVSTPSLVYMGHAMHTVRMQEKQKLREAEKAKEAGGTGTYEYLAEKAELSCWKEVNGKIVLQGTLLNTYVCTILIRTAMEVAFMVGQYLLYGIFLDTLHVCRRSPCPHPVNCYVSRPTEKNVFIVFMMAVAGLSLFLSLAELYHLGWKKIRQRLAKSRQGDKHQLLGPSTSLVQGLTPPPDFNQCLKNSPDEKFFSDFSNNMGSRKNPDPLATEEVPNQEQIPEEGFIHTQYGQKPEQPSGASAGHRFPQGYHSDKRRLSKASSKARSDDLSV
chain 2: not shown

Results on 1 variant are retold here after PMC7226732 (2020).

In the experiment the parent is B1. The experiment in a line: co-immunoprecipitation (IP: V5) and Western blot quantification; HEK293A cell lysates; read off a plot.
chain 1 W4A, chain 1 L7A: the ratio to parent was roughly 1.9.
